T1: Human CEACAM6 Protein, Human, Recombinant (His Tag) (human, UniProt P40199 35-320, biotinylated in Example 6 (Bio-CEACAM6), site not stated)
T1 construct: Bought recombinant antigen; also called CEACAM6抗原; 人CEACAM6抗原
T1 sequence (looked up): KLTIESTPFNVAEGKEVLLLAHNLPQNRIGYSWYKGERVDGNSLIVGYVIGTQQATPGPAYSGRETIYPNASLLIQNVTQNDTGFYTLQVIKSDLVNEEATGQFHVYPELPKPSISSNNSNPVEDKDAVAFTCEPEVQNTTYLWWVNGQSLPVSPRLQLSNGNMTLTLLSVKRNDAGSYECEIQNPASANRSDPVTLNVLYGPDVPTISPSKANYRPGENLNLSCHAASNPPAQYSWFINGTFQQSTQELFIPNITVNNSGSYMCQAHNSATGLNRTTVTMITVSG


Each binder was assayed against T1, Human CEACAM6 Protein, Human, … (assay: phage ELISA, phage-displayed VHH supernatant on coated CEACAM6).

binding result	Binder
binds	单域抗体NBC4 (VHH) VHH: HVQLVESGGGLVQAGGSLRLSCAVSGSIFSNDVMGWYRQAPGKQRELVAFITNGGVAHSKDPEKGRFTISRDNGKNTVYLQMNSLKPDDTAVYYCNVRSLVERSREYWGQGTQVTVSS
binds	单域抗体NBC6 (VHH) VHH: QVKLEESGGGLVQAGGSLRLSCAVSGSIFSNDVMGWYRQAPGKQRELVAFITNEGVAHSKDPVKGRFTISRDNGKNTVYLQMNSLKPDDTAVYYCNVRSLVERSREYWGQGTQVTVSS
binds	单域抗体NBC5 (VHH) VHH: QVKLEESGGGLVQAGGSLRLSCAASGDIDRNDVMHWYRQAPGKQRELVAWIANNGATNYADSVKGRFTISRDNAKNTVYLQMNSLKPEDTAVYYCNVRSLVRRSRDYWGQGTQVTVSS

Source: patent CN112457402A (BEIJING NIUAMBO BIOTECHNOLOGY CO LTD, dated 2021)
